These results are taken from article PMC10397247.

Holding throughout (experiment): two-hybrid library CCNG1;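 also: natural log of median RNA to DNA barcode read ratio; higher means stronger binding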
One assay addresses T1, 4H56-bA.
T1 chain: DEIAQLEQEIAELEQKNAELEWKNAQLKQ

Another assay addresses T2, 4H2859-bA.
T2 chain: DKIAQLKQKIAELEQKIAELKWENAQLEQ

The next assay has as its target T3, 4H2253-bA.
T3 chain: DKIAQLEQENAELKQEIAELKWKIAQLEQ

In the next assay the target is T4, 4H264-bA.
T4 chain: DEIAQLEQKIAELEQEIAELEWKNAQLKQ

The next assay has as its target T5, 4H796-bA.
T5 chain: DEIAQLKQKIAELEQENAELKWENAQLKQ

For a further assay, the target named is T6, 4H3041-bA.
T6 chain: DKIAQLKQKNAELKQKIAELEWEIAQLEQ

Another assay addresses T7, 4H3297-bA.
T7 chain: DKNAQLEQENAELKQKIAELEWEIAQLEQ

The target in the next assay is T8, 4H349-bA.
T8 chain: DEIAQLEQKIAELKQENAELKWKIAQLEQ

The target of a further assay is T9, 4H235-bA.
T9 chain: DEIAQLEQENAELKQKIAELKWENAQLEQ

Another assay concerns the target T10, 4H949-bA.
T10 chain: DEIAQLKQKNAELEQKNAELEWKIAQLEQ

The target of a further assay is T11, 4H2233-bA.
T11 chain: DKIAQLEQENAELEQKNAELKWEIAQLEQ

The next assay deals with T12, 4H2760-bA.
T12 chain: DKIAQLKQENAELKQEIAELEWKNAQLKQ

Another assay addresses T13, 4H2931-bA.
T13 chain: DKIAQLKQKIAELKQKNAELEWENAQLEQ

For the next assay, the target named is T14, 4H932-bA.
T14 chain: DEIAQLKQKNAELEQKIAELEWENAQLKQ

A further assay deals with T15, 4H3381-bA.
T15 chain: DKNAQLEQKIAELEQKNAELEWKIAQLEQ

The next assay deals with T16, 4H2518-bA.
T16 chain: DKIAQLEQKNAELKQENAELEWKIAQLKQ

In another assay the target is T17, 4H730-bA.
T17 chain: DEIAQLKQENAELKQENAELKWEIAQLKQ

In the next assay the target is T18, 4H2444-bA.
T18 chain: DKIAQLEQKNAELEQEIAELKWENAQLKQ

The target of another assay is T19, 4H3364-bA.
T19 chain: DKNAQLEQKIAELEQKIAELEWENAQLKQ

The next assay addresses T20, 4H2585-bA.
T20 chain: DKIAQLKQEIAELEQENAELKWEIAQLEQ

With DKIAQLEQENAELEQKNAELKWEIAQLEQ [4H2233-bA], the interaction score is -1.39 in the assay with 4H56-bA; -0.945 with 4H2859-bA; -1.28 in the assay with 4H2253-bA; -1.45 in the assay with 4H264-bA; -1.42 with 4H796-bA; 0.018 with 4H3041-bA. The interaction score with 4H3297-bA is -0.632; with 4H349-bA, -1.43; in the assay with 4H235-bA, -1.01; in the assay with 4H949-bA it was -1; with 4H2233-bA, -0.789; in the assay with 4H2760-bA, -0.641. The interaction score was -1.08 in the assay with 4H2931-bA; -1.01 with 4H932-bA; -0.976 with 4H3381-bA; 2.31 with 4H2518-bA; -1.24 in the assay with 4H730-bA; -1.1 in the assay with 4H2444-bA. In addition, the figures for the interaction score with 4H3364-bA and with 4H2585-bA were -0.979 and -1.22, respectively.
